This is an account of results in patent US20120201835A1 (MERCK, published 2012).

Assay [1] has as its target Rhesus monkey Dkk-1 (Rhesus monkey). The assay is described as follows: cell-based or functional assay.
For assay [2], the target named is T1, Mouse Dkk-1 (mouse, UniProt O54908 32-272).
T1 construct: Recombinant; also called MsDkk-1; murine Dkk-1
T1 sequence (looked up): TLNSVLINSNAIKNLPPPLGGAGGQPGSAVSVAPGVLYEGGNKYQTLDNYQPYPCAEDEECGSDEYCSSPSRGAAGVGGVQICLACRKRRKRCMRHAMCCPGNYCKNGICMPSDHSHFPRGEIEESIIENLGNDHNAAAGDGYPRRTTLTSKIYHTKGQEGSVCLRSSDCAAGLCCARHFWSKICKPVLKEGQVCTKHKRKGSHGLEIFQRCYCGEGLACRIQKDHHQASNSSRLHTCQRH
The assay is described as follows: TRF cell assay, inhibition of Eu-labeled mouse Dkk-1 binding to cells. How it is done:
For the assay, the anti-Dkk-1 antibodies were added to HEK cells overexpressing LRP5 (HEK293hLrp5 cells) at final concentrations of 0.2, 0.6, 2.0, 6.0, and 20 nM. Anti-IL3 Receptor monoclonal antibody (8B4) was used as a negative control. Eu-labeled Dkk-1 (100 pM) was incubated with the cells in absence or presence of the antibodies for 20 minutes. Dkk-1 bound in solution by the antibodies and thus blocked from binding to the cell surface of the HEK293hLrp5 cells was removed by 4× wash steps and Eu-labeled Dkk-1 bound to cell surface was measured by TRF signal. Eu-labeled Dkk-1 protein binding to HEK293 cells overexpressing human LRP5 or LRP6 was monitored by measuring the time-resolved fluorescence of bound ligand.

The target in assay [3] is T1, Mouse Dkk-1. Briefly: phage ELISA (+), scFv-phage on mouse Dkk-1. A general note: An ELISA detects its analyte on a solid surface through an enzyme-linked reagent.
For assay [4], the target named is Rhesus monkey Dkk-1 (Rhesus monkey). Briefly: TRF cell assay: inhibition of Eu-Dkk-1 binding to HEK293 cells overexpressing LRP5 or LRP6, scFv.
For assay [5] the target is unchanged. The assay is described as follows: TRF cell assay, inhibition of Eu-Dkk-1 binding to HEK293hLrp5 cells.
Assay [6] has the same target. The assay is described as follows: SPR, Biacore 3000, mean of several independent runs. Background: Surface plasmon resonance follows binding to a sensor surface in real time, without labels.
In assay [7] the target is T2, Rhesus monkey Dkk-2 (chimeric protein: N-terminal region of rhesus Dkk-1 fused to the C-terminal region of … (Rhesus monkey)).
T2 chain: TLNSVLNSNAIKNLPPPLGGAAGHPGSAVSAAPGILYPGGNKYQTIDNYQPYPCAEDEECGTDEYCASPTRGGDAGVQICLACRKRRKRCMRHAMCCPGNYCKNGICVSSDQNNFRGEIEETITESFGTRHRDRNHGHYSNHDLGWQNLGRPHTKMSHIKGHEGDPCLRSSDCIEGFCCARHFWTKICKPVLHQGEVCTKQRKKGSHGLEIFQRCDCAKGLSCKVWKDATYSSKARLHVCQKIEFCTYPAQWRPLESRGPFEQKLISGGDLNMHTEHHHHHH
Briefly: dot blot of native recombinant protein (0 to 100 ng per spot) probed with RH2-18. The method, then:
Native recombinant rhesus monkey Dkk-1, Dkk-2, and cynomolgus monkey Dkk-4 proteins (0.1 ng to 100 ng) were used. A non-related recombinant protein was loaded as a control for non-specific assay signal (HIS protein) and probed with the RH2-18 antibodies.
The Dkk-1 amino acid sequence is closely related to that of Dkk-2 and Dkk-4 with 50% and 45% identity at the amino acid-level, respectively. Cross-reactivity of RH2-18 against rhesus monkey Dkk-2 (using a chimeric protein consisting of the N-terminal region of the rhesus Dkk-1 fused to the C-terminal region of the rhesus Dkk-2 with myc and His-6 tags at the C-terminal end of the Dkk-2 C-terminal region; see SEQ ID NO:71) and cynomolgus monkey Dkk-4 (SEQ ID NO:70) was tested by dot-blot analysis using recombinant proteins. Native recombinant rhesus monkey Dkk-1, Dkk-2, and cynomolgus monkey Dkk-4 proteins (0.1 ng to 100 ng) were used. A non-related recombinant protein was loaded as a control for non-specific assay signal (HIS protein). The dot blots were probed with RH2-18. […] Selectivity of the antibody towards Dkk-1 was minimally 100-fold.

The target of assay [8] is Rhesus monkey Dkk-1 (Rhesus monkey). Briefly: TRF cell-based blocking assay: Eu-labeled rhesus Dkk-1 binding to human LRP5 on HEK293hLrp5 cells, RH2-18 titrated over an extended range; no unit is printed beside the number or on the log axis, M follows from 4.75 nM in paragraph 132.
The target is the same in assay [9]. The assay is described as follows: TRF cell assay, inhibition of Eu-Dkk-1 binding to HEK293hLrp5 cells, extended dose range.
The target of assay [10] is T3, Human Dkk-1 (human, UniProt O94907 32-266).
T3 sequence: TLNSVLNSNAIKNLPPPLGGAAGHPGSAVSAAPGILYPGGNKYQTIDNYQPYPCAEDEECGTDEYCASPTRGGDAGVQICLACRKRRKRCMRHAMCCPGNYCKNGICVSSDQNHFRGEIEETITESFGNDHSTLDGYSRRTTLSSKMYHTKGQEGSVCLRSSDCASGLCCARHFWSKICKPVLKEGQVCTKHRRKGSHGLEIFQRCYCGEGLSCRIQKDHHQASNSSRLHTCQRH
The assay is described as follows: SPR, Biacore 3000, several independent runs with different antibody lots. The method, then:
(§1) The affinity of the RH2-18 antibody for human Dkk-1 and Rhesus Dkk-1 was determined by measuring RH2-18 binding kinetics by surface plasmon resonance in a Biacore 3000 instrument according to manufacturer's instructions (Biacore, Inc., Piscataway, N.J.). Several independent affinity studies were performed using different RH2-18 antibody lots against human Dkk-1 and rhesus Dkk-1.

In assay [11] the target is T3, Human Dkk-1. Briefly: SPR, Biacore 3000, mean of several independent runs. The method, then:
as §1

Assay [12] addresses Rhesus monkey Dkk-1 (Rhesus monkey). Briefly: dot blot of native recombinant proteins, 0.1 ng to 100 ng.
Assay [13] has the same target. Briefly: SPR, Biacore 3000, several independent runs with different antibody lots.

B1: RH1-10 antibody (antibody, human IgG2, lambda, V domains shown)
VH: QVQLLQSAAEVKKPGESLKISCKGSGYDFPGYYLHWVRQAPGQGLEWMGWINANSGATNYAQNFQGRVTMTRDTSISAAYMELSSLRSDDTAVYYCTREDHWGRGTTVTVSS
VL: QSVLTQPPSASGAPGQRVTISCTGSSSNIGAGYDVHWYQQLPGAAPKLLIYGNSNRPSGVPDRFSGSKSGTSASLAITGLQAEDEADYYCQSYDSSLSGYVFGTGTKVTVLG
notes: IgG converted from the scFv, IgG2M4 heavy chain constant region
Take B1: the pTOPflash/Lef-1 luciferase reporter in HEK293hLrp5 cells, Wnt3A plus 50 nM rhesus Dkk-1 in assay [1] is more than 30 nM. Besides, the binding result in assay [2] is on record as “binds”.

B2: RH1-10 scFv (phage clone) (scFv, V domains shown)
VH: QVQLLQSAAEVKKPGESLKISCKGSGYDFPGYYLHWVRQAPGQGLEWMGWINANSGATNYAQNFQGRVTMTRDTSISAAYMELSSLRSDDTAVYYCTREDHWGRGTTVTVSS
VL: QSVLTQPPSASGAPGQRVTISCTGSSSNIGAGYDVHWYQQLPGAAPKLLIYGNSNRPSGVPDRFSGSKSGTSASLAITGLQAEDEADYYCQSYDSSLSGYVFGTGTKVTVLG
notes: Single chain Fv from the CAT phage display library (BMV)
As for B2, in assay [3], the binding result was “binds”. Also, the % inhibition of Dkk-1 in assay [4] turned out to be 89%.

B3: RH2-18 antibody (antibody, human IgG2, lambda, V domains shown)
VH: EVQLVQSGAEVKKPGASVKVSCKASGYTFTDYYIHWVRQAPGQGLEWMGWIHSNSGATTYAQKFQARVTMSRDTSSSTAYMELSRLESDDTAMYFCSREDYWGQGTLVTVSS
VL: QSVLTQPPSVSGAPGQRVTISCTGSSSNIGAGYDVHWYQQLPGTAPKLLIYGYSNRPSGVPDRFSGSKSGASASLAITGLRPDDEADYYCQSYDNSLSSYVFGGGTQLTVLS
notes: also called anti-Dkk-1 antibody RH2-18
In [5], B3 returned an inhibitory activity (concentration) of 4.75 nM. Besides, the Kd in [6] was 0.858 nM; in [10], 0.202 to 0.269 nM; in assay [11], 0.251 nM; in assay [13], 0.771 to 0.934 nM. For the same molecule, the binding result in assay [7] is recorded as “no binding (tested: 100 ng)”; in [2] it was “binds”. This molecule also displayed an EC50 in assay [8] of 4.75 nM. In addition, the effective dose in [9] worked out at 5 nM. For the same molecule, the endogenous ALP activity of C3H10T1/2 cells (osteoblastic differentiation), Wnt3A plus recombinant Dkk-1, 3 days in assay [1] was 100 nM. The pTOPflash/Lef-1 luciferase reporter in HEK293hLrp5 cells, Wnt3A plus 50 nM rhesus Dkk-1 in assay [1] is more than 30 nM. Besides, the detection limit for binding in assay [12] came out at 1 ng. Further, the selectivity towards Dkk-1 (fold, against Dkk-2 and Dkk-4) in assay [12] was more than 100 fold.

B4: RH2-80 antibody (antibody, human IgG2, lambda, V domains shown)
VH: EVQLVQSGAEVKKPGASVKVSCKASGYTFTDYYIHWVRQAPGQGLEWMGWIHSNSGATTYAQKFQARVTMSRDTSSSTAYMELSRLESDDTAMYFCSREDYWGKGTMVTVSS
VL: QAVLTQPSSVSGAPGQRVSISCTGSSSNIGAAYDVHWYQQLPGTAPRLLIYVNNNRPSGVPDRFSGSKSGTSASLVIAGLQAEDEADYYCQSYDNSLNAYVFGTGTKLTVLG
notes: as for B1
In the case of B4, the pTOPflash/Lef-1 luciferase reporter in HEK293hLrp5 cells, Wnt3A plus 50 nM rhesus Dkk-1 in [1] was more than 30 nM. For the same molecule, the binding result in [2] is “binds”.

B5: RH2-18 scFv (phage clone) (scFv, V domains shown)
VH: EVQLVQSGAEVKKPGASVKVSCKASGYTFTDYYIHWVRQAPGQGLEWMGWIHSNSGATTYAQKFQARVTMSRDTSSSTAYMELSRLESDDTAMYFCSREDYWGQGTLVTV
VL: QSVLTQPPSVSGAPGQRVTISCTGSSSNIGAGYDVHWYQQLPGTAPKLLIYGYSNRPSGVPDRFSGSKSGASASLAITGLRPDDEADYYCQSYDNSLSSYVFGGGTQLTVLS
notes: Single chain Fv from the CAT phage display library (CS)
For the molecule B5, in [3], the binding result is recorded as “binds”. Besides, the % inhibition of Dkk-1 in assay [4] came to 74%.

B6: RH2-59 scFv (phage clone) (scFv, V domains shown)
VH: EVQLVQSGAEVKKPGASVKVSCKASGYTFTDYYIHWVRQAPGQGLEWMGWIHSNSGATTYAQKFQARVTMSRDTSSSTAYMELSRLESDDTAMYFCSREDYWGRGTMVTVSS
VL: QAVLTQPSSVSGAPGQRVTISCTGSSSNIGAGYDVHWYQQLPGTAPKLLIYANTNRPSGIPDRFSGSKSGTSASLAITGLQTEDEADYYCQSYDTSPSASYVFGTGTKLTVLG
notes: as for B5
On to B6, for which the binding result in [3] is reported as “binds”. In [4], this molecule had a % inhibition of Dkk-1 of 61%.

B7: RH2-80 scFv (phage clone) (scFv, V domains shown)
VH: EVQLVQSGAEVKKPGASVKVSCKASGYTFTDYYIHWVRQAPGQGLEWMGWIHSNSGATTYAQKFQARVTMSRDTSSSTAYMELSRLESDDTAMYFCSREDYWGKGTMVTVSS
VL: QAVLTQPSSVSGAPGQRVSISCTGSSSNIGAAYDVHWYQQLPGTAPRLLIYVNNNRPSGVPDRFSGSKSGTSASLVIAGLQAEDEADYYCQSYDNSLNAYVFGTGTKLTVLG
notes: as for B5
B7: in assay [3], the binding result was “binds”. For the same molecule, the % inhibition of Dkk-1 in assay [4] amounted to 62%.

B8: RH2-59 antibody (antibody, human IgG2, lambda, V domains shown)
VH: EVQLVQSGAEVKKPGASVKVSCKASGYTFTDYYIHWVRQAPGQGLEWMGWIHSNSGATTYAQKFQARVTMSRDTSSSTAYMELSRLESDDTAMYFCSREDYWGRGTMVTVSS
VL: QAVLTQPSSVSGAPGQRVTISCTGSSSNIGAGYDVHWYQQLPGTAPKLLIYANTNRPSGIPDRFSGSKSGTSASLAITGLQTEDEADYYCQSYDTSPSASYVFGTGTKLTVLG
notes: as for B1
With B8, the binding result in assay [2] is listed as “binds”.

What is called Kd is a measure of binding affinity in units of concentration. In general, EC50 refers to the concentration at which the effect is half-maximal.
